biological target: gbrap_human GABARAP (UniProt O95166)
Sequence (O95166 whole entry): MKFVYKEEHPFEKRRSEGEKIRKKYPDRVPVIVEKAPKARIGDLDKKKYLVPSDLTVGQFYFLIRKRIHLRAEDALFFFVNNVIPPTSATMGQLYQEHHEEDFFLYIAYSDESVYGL

Substance	effect of a mutation on the interaction
Pericentriolar material 1 protein (Homo sapiens), Q15154 K1957Y	with no effect
Pericentriolar material 1 protein (Homo sapiens), Q15154 K1965A	with no effect
Pericentriolar material 1 protein (Homo sapiens), Q15154 K1965C	with no effect
Pericentriolar material 1 protein (Homo sapiens), Q15154 K1965D	with no effect
Pericentriolar material 1 protein (Homo sapiens), Q15154 K1965E	with no effect
Pericentriolar material 1 protein (Homo sapiens), Q15154 K1965F	with no effect
Pericentriolar material 1 protein (Homo sapiens), Q15154 K1965G	disrupting interaction strength
Pericentriolar material 1 protein (Homo sapiens), Q15154 K1965H	with no effect
Pericentriolar material 1 protein (Homo sapiens), Q15154 K1965I	with no effect
Pericentriolar material 1 protein (Homo sapiens), Q15154 K1965L	with no effect
Pericentriolar material 1 protein (Homo sapiens), Q15154 K1965M	with no effect
Pericentriolar material 1 protein (Homo sapiens), Q15154 K1965N	with no effect
Pericentriolar material 1 protein (Homo sapiens), Q15154 K1965P	disrupting interaction strength
Pericentriolar material 1 protein (Homo sapiens), Q15154 K1965Q	with no effect
Pericentriolar material 1 protein (Homo sapiens), Q15154 K1965R	with no effect
Pericentriolar material 1 protein (Homo sapiens), Q15154 K1965S	with no effect
Pericentriolar material 1 protein (Homo sapiens), Q15154 K1965T	with no effect
Pericentriolar material 1 protein (Homo sapiens), Q15154 K1965V	with no effect
Pericentriolar material 1 protein (Homo sapiens), Q15154 K1965W	with no effect
Pericentriolar material 1 protein (Homo sapiens), Q15154 K1965Y	with no effect
Pericentriolar material 1 protein (Homo sapiens), Q15154 K1972A	with no effect
Pericentriolar material 1 protein (Homo sapiens), Q15154 K1972C	with no effect
Pericentriolar material 1 protein (Homo sapiens), Q15154 K1972D	with no effect
Pericentriolar material 1 protein (Homo sapiens), Q15154 K1972E	with no effect

Substance	effect of a mutation on the interaction
Pericentriolar material 1 protein (Homo sapiens), Q15154 K1972F	with no effect
Pericentriolar material 1 protein (Homo sapiens), Q15154 K1972G	with no effect
Pericentriolar material 1 protein (Homo sapiens), Q15154 K1972H	with no effect
Pericentriolar material 1 protein (Homo sapiens), Q15154 K1972I	with no effect
Pericentriolar material 1 protein (Homo sapiens), Q15154 K1972L	with no effect
Pericentriolar material 1 protein (Homo sapiens), Q15154 K1972M	with no effect
Pericentriolar material 1 protein (Homo sapiens), Q15154 K1972N	with no effect
Pericentriolar material 1 protein (Homo sapiens), Q15154 K1972P	with no effect
Pericentriolar material 1 protein (Homo sapiens), Q15154 K1972Q	with no effect
Pericentriolar material 1 protein (Homo sapiens), Q15154 K1972R	with no effect
Pericentriolar material 1 protein (Homo sapiens), Q15154 K1972S	with no effect
Pericentriolar material 1 protein (Homo sapiens), Q15154 K1972T	with no effect
Pericentriolar material 1 protein (Homo sapiens), Q15154 K1972V	with no effect
Pericentriolar material 1 protein (Homo sapiens), Q15154 K1972W	with no effect
Pericentriolar material 1 protein (Homo sapiens), Q15154 K1972Y	with no effect
Pericentriolar material 1 protein (Homo sapiens), Q15154 L1969A	with no effect
Pericentriolar material 1 protein (Homo sapiens), Q15154 L1969C	with no effect
Pericentriolar material 1 protein (Homo sapiens), Q15154 L1969D	with no effect
Pericentriolar material 1 protein (Homo sapiens), Q15154 L1969E	with no effect
Pericentriolar material 1 protein (Homo sapiens), Q15154 L1969F	with no effect
Pericentriolar material 1 protein (Homo sapiens), Q15154 L1969G	with no effect
Pericentriolar material 1 protein (Homo sapiens), Q15154 L1969H	with no effect
Pericentriolar material 1 protein (Homo sapiens), Q15154 L1969I	with no effect
Pericentriolar material 1 protein (Homo sapiens), Q15154 L1969K	with no effect

Substance	effect of a mutation on the interaction
Pericentriolar material 1 protein (Homo sapiens), Q15154 L1969M	with no effect
Pericentriolar material 1 protein (Homo sapiens), Q15154 L1969N	with no effect
Pericentriolar material 1 protein (Homo sapiens), Q15154 L1969P	with no effect
Pericentriolar material 1 protein (Homo sapiens), Q15154 L1969Q	with no effect
Pericentriolar material 1 protein (Homo sapiens), Q15154 L1969R	with no effect
Pericentriolar material 1 protein (Homo sapiens), Q15154 L1969S	with no effect
Pericentriolar material 1 protein (Homo sapiens), Q15154 L1969T	disrupting interaction strength
Pericentriolar material 1 protein (Homo sapiens), Q15154 L1969V	with no effect
Pericentriolar material 1 protein (Homo sapiens), Q15154 L1969W	with no effect
Pericentriolar material 1 protein (Homo sapiens), Q15154 L1969Y	with no effect
Pericentriolar material 1 protein (Homo sapiens), Q15154 L1971A	with no effect
Pericentriolar material 1 protein (Homo sapiens), Q15154 L1971C	with no effect
Pericentriolar material 1 protein (Homo sapiens), Q15154 L1971D	with no effect
Pericentriolar material 1 protein (Homo sapiens), Q15154 L1971E	with no effect
Pericentriolar material 1 protein (Homo sapiens), Q15154 L1971F	with no effect
Pericentriolar material 1 protein (Homo sapiens), Q15154 L1971G	with no effect
Pericentriolar material 1 protein (Homo sapiens), Q15154 L1971H	with no effect
Pericentriolar material 1 protein (Homo sapiens), Q15154 L1971I	with no effect
Pericentriolar material 1 protein (Homo sapiens), Q15154 L1971K	with no effect
Pericentriolar material 1 protein (Homo sapiens), Q15154 L1971M	with no effect
Pericentriolar material 1 protein (Homo sapiens), Q15154 L1971N	with no effect
Pericentriolar material 1 protein (Homo sapiens), Q15154 L1971P	with no effect

Source: IntAct's records for PubMed 28712572
